Laboratory results: patent US20210221874A1 (TRUSTEES OF TUFTS COLLEGE, published 2021)

B1: JIK-B8 (VHH)
VHH: SGGGLVQPGGSLGLSCVVASERSINNYGMGWYRQAPGKQRELVAQISSGGTTNYADSVEGRFTISRDNVKKMVHLQVNSLKPEDTAVYYCNSLLRTFSWGQGTQVTVSS
B2: JKO-E12 (VHH)
VHH: QVQLAETGGGLVQAGGSLRLSCLASRMSFSRRPMAWYRQAPGKQRERVATISSFGDTTNYTDSVEGRFTISRDNAKNTMYLQMNSLKPDDTAVYYCNTLLATYAWGQGTQVTVSS
B3: JHD-B6 (VHH)
VHH: QVQLVESGGGLVQPGGSLRLSCAASGSSFSRYAMRWYRQAPGKQRELVANINSRGTSNYADSVKGRFTISRDNAKNTVYLQMNSLKPEDTAVYYCNAEWLGRSEPSWGQGTQVTVSS
B4: JIJ-D3 (VHH)
VHH: QVQLVETGGLVQPGGSLRLSCAASGLTFSSTAMAWFRQAPGKEREFVARISGAGITIYYSDSVKDRFTISRNNVENTVYLQMNSLKTEDTAVYYCAARRNTYTSDYNIPARYPYWGQGTQVTVSS
B5: JKO-H2 (VHH)
VHH: QVQLAESGGGLVQAGGSLRLSCAASGRTFSSYVMGWFRQAPGKEREFVAAISRNGGKTYYADSVKGRFTISRDGTENTVYLQMNSLKPEDTAVYYCAAAVAASAEFVTARSNFYEYWGQGTQVTVSS
notes: also called JKO-H12
B6: JKO-A4 (VHH)
VHH: QVQLAESGGGSVQPGGSLRLSCAASGFTFSSYTMSWVRQAPGKGIEWVSDINGGGDRTDYADSVKGRFTISRDNARNTLYLQMNSLQPEDTAVYYCAKDLSYVSGTYFANDWGQGTQVTVSS
B7: JKH-C7 (VHH)
VHH: VQLVESGGGGLVQAGGSLRLSCAASGRTFSGYAMGWFRQAPGKEREFVADISWSGHNTYYGDSVKGRFTISRDTAKNTVYLQMNSLKPEDTAVYYCAAEGARTHLSDSYYFPGLWAEPPVGYWGQGTQVTVSS
notes: also called JHK-C7
B8: JIK-B10 (VHH)
VHH: QVQLVETGGGLVQPGGSLRLSCAASGFTFSSYRMSWYRQAAGKERDVVATITANGVPTGYADSVMGRFTISRDNAKNTVYLEMNSLNPEDTAVYYCNAPRLHTSVGYWGQGTQVTVSS
B9: JKM-A6 (VHH)
VHH: QLQLAETGGGLVQPGGSLRLSCAASGATLDTYIITWFRQAPGKEREAVSCINRSGSTTYSDSVKGRFTISRDNAQKTVYLQMNSLNPEDTAIYYCAADASYRTCGGSWWNWAYWGQGTQVTVSS
B10: JKH-A4 (VHH)
VHH: QVQLAETGGGLVQAGGSLRLSCSASGLTFGNYAMGWFRQAPGKEREFVASISRSGSNTWYAEPLKGRFAISRDNDKNALYLQMNSLKPEDTAVYYCAGGSYNSDWWNYMYWGQGTQVTVSS
B11: JIJ-A12 (VHH)
VHH: QVQLVESGGGLVQPGGSLRLSCAASGIIFSIYTMGWYRQAPGKQRELVAAIPSGPSANATDSVGGRFTITRDNAENTVYLQMNDLKPEDTAVYYCNARRGPGIKNYWGQGTQVTVSS
B12: JIJ-E9 (VHH)
VHH: QVQLVETGGLVQPGGSLRLSCAASRSTTATIYSMNWYRQAPGKQRELVAGMTSDGQTNYATSVKGRFTISRDNAKNTVYLLMNSLKLEDTAVYYCYVKPWRLQGWDYWGQGTQVTVSS
B13: JIJ-B8 (VHH)
VHH: SGGGLVQPGGSLSVSCAASGSIARPGAMAWYRQAPGKERELVASITPGGLTNYADSVTGRFTISRDNAKRTVYLQMNSLQPEDTAVYYCHARIIPLGLGSEYRDHWGQGTQVTVSS
B14: JKO-B8 (VHH)
VHH: QLQLAESGGGLVQPGGSLRLSCTASGIIFDYYSVDWYRQAPGKERELVATITGDGSPNYADSVKGRFTISRDNAKKTVYLQMNGLKPEETAVYYCHAKRTIGTKSEYWGQGTQVTVSS
B15: JKH-D12 (VHH)
VHH: QVQLVETGGGLVQAGGTLRLSCAASGRTFTSYYIGWFRQEPGKEREFVASIGWTDDNTYYADSVKGRFTISRDNAETTAYLQMSGLKPEDTAVYYCAADYGSGIRAWYNWIYWGQGTQVTVSS

Key:
[1] = target: T1, anthrax protective antigen, wild type PA83 (Bacillus anthracis, UniProt P13423 30-764); test: SPR (ProteOn XPR36)
T1 construct: mature

[2] = target: T1, anthrax protective antigen, wild type …; test: cell-based or functional assay
[3] = target: T1, anthrax protective antigen, wild type …; test: cell-based or functional assay; remark: listed apart in the source
[4] = target: T1, anthrax protective antigen, wild type …; test: dilution ELISA on PA-coated plates
[5] = target: T1, anthrax protective antigen, wild type …; test: SPR (Biacore 3000)
[6] = target: T1, anthrax protective antigen, wild type …

T1 sequence (P13423 30-764): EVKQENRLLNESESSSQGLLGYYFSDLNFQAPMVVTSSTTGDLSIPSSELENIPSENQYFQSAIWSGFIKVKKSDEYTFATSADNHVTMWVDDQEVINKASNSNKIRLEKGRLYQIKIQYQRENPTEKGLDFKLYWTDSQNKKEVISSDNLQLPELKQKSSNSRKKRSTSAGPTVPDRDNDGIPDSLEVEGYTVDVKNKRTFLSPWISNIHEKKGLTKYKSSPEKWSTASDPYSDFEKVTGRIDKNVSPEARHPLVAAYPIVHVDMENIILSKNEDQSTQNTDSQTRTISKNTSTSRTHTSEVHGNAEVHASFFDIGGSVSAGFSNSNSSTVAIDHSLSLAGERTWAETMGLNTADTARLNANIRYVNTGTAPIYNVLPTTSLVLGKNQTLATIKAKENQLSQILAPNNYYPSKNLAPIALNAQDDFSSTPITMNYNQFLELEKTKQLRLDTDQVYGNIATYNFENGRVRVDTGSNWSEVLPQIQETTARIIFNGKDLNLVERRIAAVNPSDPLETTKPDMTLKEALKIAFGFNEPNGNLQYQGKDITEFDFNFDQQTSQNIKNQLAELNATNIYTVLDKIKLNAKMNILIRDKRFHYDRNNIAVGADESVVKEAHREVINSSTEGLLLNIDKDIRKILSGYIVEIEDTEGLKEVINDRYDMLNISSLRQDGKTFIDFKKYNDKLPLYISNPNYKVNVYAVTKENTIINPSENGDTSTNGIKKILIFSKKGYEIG

Row | Binder | Kd [1] [nM] | IC50 (anthrax lethal toxin neutralization, RAW264.7 macrophages) [2] [nM] | IC50 (read off the curve) [3] [nM] | EC50 [4] [nM] | Kd [5] [nM] | EC50 (read off the curve) [6] [nM]
1 | B1 | 0.13 | 1 | ~1 | 0.2 | – | –
2 | B2 | – | 0.2 | – | 0.1 | 0.2 | –
3 | B3 | 66 | 10 | – | 0.5 | – | –
4 | B4 | 18 | 9 | – | 0.3 | – | –
5 | B5 | – | – | – | 0.6 | 4 | –
6 | B6 | – | – | – | 0.3 | 10 | –
7 | B7 | – | 5 | ~4 | 2 | 7 | ~2
8 | B8 | 9 | 8 | – | 0.2 | – | –
9 | B9 | – | – | – | 0.3 | 20 | –
10 | B10 | – | – | – | 0.5 | 9 | –
11 | B11 | 45 | – | – | 2 | – | –
12 | B12 | 12 | 30 | – | 0.4 | – | –
13 | B13 | 8 | – | – | 0.4 | – | –
14 | B14 | – | – | – | > 100 | 200 | –
15 | B15 | – | – | – | 0.3 | 1 | –
